Data set [1] deals with T1, blue laccase (Sclerotinia sclerotiorum, UniProt A7EM18).
T1 construct: gene SS1G_06365; native, secreted, purified from culture medium; ~66 kDa glycoprotein; blue form (phenolics removed by preparative native PAGE or low-coloured medium)
T1 sequence (A7EM18 28-577): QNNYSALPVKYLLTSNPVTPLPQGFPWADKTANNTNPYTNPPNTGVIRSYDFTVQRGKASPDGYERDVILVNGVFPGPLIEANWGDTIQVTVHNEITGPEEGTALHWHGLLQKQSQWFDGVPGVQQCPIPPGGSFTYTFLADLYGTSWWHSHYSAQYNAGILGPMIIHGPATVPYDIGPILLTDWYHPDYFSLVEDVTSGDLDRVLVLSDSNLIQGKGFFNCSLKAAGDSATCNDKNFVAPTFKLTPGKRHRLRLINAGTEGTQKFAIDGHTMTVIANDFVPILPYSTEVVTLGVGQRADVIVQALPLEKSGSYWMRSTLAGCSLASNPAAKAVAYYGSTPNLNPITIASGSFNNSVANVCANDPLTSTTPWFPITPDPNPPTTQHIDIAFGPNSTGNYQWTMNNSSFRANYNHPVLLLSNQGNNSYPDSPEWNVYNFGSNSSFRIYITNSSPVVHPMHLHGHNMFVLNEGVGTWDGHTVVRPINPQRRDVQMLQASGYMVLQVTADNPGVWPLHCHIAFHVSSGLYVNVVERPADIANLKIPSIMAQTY
The data set is described as follows: UV-vis after desalting. The data set is classed as binding. The note with it: covalent, adduct of the radical product formed on turnover, site not identified; 25 mM MES pH 6.3.

Substrate in data set [2]: CCn1c(=NN=c2sc3cc(S(=O)(=O)O)ccc3n2CC)sc2cc(S(=O)(=O)O)ccc21
Briefly: purified protein. The note with it: 50 mM acetate pH 4, relative SD 5–20%. The data set is classed as biochemical, Sclerotinia sclerotiorum.

Substrate in data set [3]: Cc1cc(-c2cc(C)c(N)c(C)c2)cc(C)c1N
The data set is described as follows: purified protein. The data set is classed as biochemical, Sclerotinia sclerotiorum. To be noted: 50 mM acetate pH 4, relative SD 5–20%.

The source of these data is PMC6974248, ““Yellow” laccase from Sclerotinia sclerotiorum is a blue laccase that enhances its substrate affinity by forming a reversible tyrosyl-product adduct” (PLoS ONE, 2020).

Consider `Cc1cc(-c2cc(C)c(N)c(C)c2)cc(C)c1N` [TMB, 3,3’,5,5’-tetramethylbenzidine], for which, in data set [1], the UV-vis after desalting entry is “purple with ABTS, red with guaiacol, orange with TMB”.

`COc1ccccc1O` [guaiacol]: in data set [1], the UV-vis after desalting result is on record as “purple with ABTS, red with guaiacol, orange with TMB”.

B1: yellow laccase (Sclerotinia sclerotiorum 1980 UF-70) (protein)
chain: QNNYSALPVKYLLTSNPVTPLPQGFPWADKTANNTNPYTNPPNTGVIRSYDFTVQRGKASPDGYERDVILVNGVFPGPLIEANWGDTIQVTVHNEITGPEEGTALHWHGLLQKQSQWFDGVPGVQQCPIPPGGSFTYTFLADLYGTSWWHSHYSAQYNAGILGPMIIHGPATVPYDIGPILLTDWYHPDYFSLVEDVTSGDLDRVLVLSDSNLIQGKGFFNCSLKAAGDSATCNDKNFVAPTFKLTPGKRHRLRLINAGTEGTQKFAIDGHTMTVIANDFVPILPYSTEVVTLGVGQRADVIVQALPLEKSGSYWMRSTLAGCSLASNPAAKAVAYYGSTPNLNPITIASGSFNNSVANVCANDPLTSTTPWFPITPDPNPPTTQHIDIAFGPNSTGNYQWTMNNSSFRANYNHPVLLLSNQGNNSYPDSPEWNVYNFGSNSSFRIYITNSSPVVHPMHLHGHNMFVLNEGVGTWDGHTVVRPINPQRRDVQMLQASGYMVLQVTADNPGVWPLHCHIAFHVSSGLYVNVVERPADIANLKIPSIMAQTY
notes: native, secreted, purified from culture medium; ~66 kDa; as-isolated yellow form, natural covalent phenolic adduct of the same protein as P1
B1: in data set [2], the Km (usually the concentration of substrate that gives half-maximal velocity) came to 14.1 µM and the kcat (as a rule, the maximal rate divided by the concentration of active sites) turned out to be 5.7 s⁻¹. For the same molecule, in data set [3], the Km was found to be 2.70 µM and the kcat worked out at 3.1 s⁻¹.
